B1: POU domain, class 3, transcription factor 2, residues 356 to 411; numbered along this chain, P20265 (parent)
chain: KKRTSIEVSVKGALESHFLKCPKPSAQEITSLADSLQLEKEVVRVWFCNRRQKEKR
B2: GA-binding protein alpha chain, residues 172 to 250; numbered along this chain, Q06546 (parent)
chain: GYRKEQERLGIPYDPIQWSTDQVLHWVVWVMKEFSMTDIDLTTLNISGRELCSLNQEDFFQRVPRGEILWSHLELLRKY

Variants of: B1
Experiment: abundance fitness (aPCA) (normalised: wild type 0, dead -1); higher = more abundant; growth selection in yeast, the domain comes from the species named
Settings: Homo sapiens

Abundance fitness, by site and new letter:
E54: V -0.466, W -0.581, Y -0.337, T -0.518
R56: Q -0.119, C 0.045, L 0.131, T 0.063, A -0.335, G 0.042, M 0.157, W -0.234, V -0.033, D 0.12, S -0.194, Y -0.413, N 0.008, E -0.031, I -0.508, P -0.58
K55: V -0.116, S 0.024, M -0.056, G -0.029, L -0.087, D 0.036, P -0.396, H -0.274, R -0.211, Y -0.019, E 0.093, C -0.33, W -0.187, A 0.139, Q -0.244, I -0.036, T -0.029, N -0.046, F -0.167

Variants of: B2
Experiment: as above
Settings: Homo sapiens

Abundance fitness: each site, then its substitutions
E5: T -0.347, L -0.45, S -0.742, K -0.806, D -0.371, I 0.004, M -0.281, F -0.419, W -0.442, V -0.093, R -0.913, Q -0.485, C -0.288, A -0.608, H -0.354, Y -0.149, P -0.958, N -0.897
Q6: W -0.498, T -0.172, L 0.037, E -0.26, H -0.852, M -0.015, A -0.076, N -0.844, I 0.078, P -0.739, S -0.221, V -0.069, C -0.118, D -0.678, K -0.96, F -0.184
G1: T -0.156, S -0.135, Q -0.047, E -0.164, L -0.634, R 0.091, M 0.045, A -0.1
L9: T -0.11, A -0.08, R -0.047, D -0.368, Q 0.016, I -0.081, G -0.373, Y -0.133, E -0.117, P -0.815, K -0.061, N -0.08, S -0.174, V -0.013, M 0.011
E7: G -0.315, P -0.891, Q -0.072, I -0.161, Y -0.282, T -0.09, A -0.071, V -0.172, K -0.494, M -0.098, W -0.288, N -0.177, R -0.141, D 0.031, F -0.252, S -0.163
R8: I -0.222, P -0.596, C -0.355, A -0.056, D -0.185, G -0.363, L -0.06, H -0.21, M -0.133, F -0.368, N -0.191, Q -0.158, K -0.024, T -0.117, E -0.054
K4: F -0.131, S -0.026, Y -0.1, T -0.067, P -0.326, Q -0.106, N -0.032, V -0.045, E -0.072, C -0.27, R -0.029, H -0.003, W -0.12, I 0.054, A -0.063, D -0.104
G10: E -0.096, C -0.079, I -0.562, F -0.272, D -0.196, A -0.068, H -0.07
R3: V -0.262, S -0.214, W -0.081, L -0.182, G -0.176, N -0.373, H -0.098, K -0.083, Q -0.05, Y -0.19, D -0.499, P -0.517, F -0.058, A -0.268, E -0.004, C -0.206, M -0.158
